Data as given in article PMC4643876 (2015).
Read-outs that look alike come from different tables or passages of the source. Ends that are not written are not given here. * marks the point of attachment. Biotin = O=C1N[C@H]2[C@H](CS[C@H]2CCCCC(=O)*)N1; Octanoyl = CCCCCCCC(=O)*; GABA = NCCCC(=O)O

Columns and labels:
[1] = biological target: T1, GFP-tagged Plasmepsin V (PmV-GFP), P. falciparum clone DC6 (Plasmodium falciparum); assay: 3 uM HRPII-PExEl substrate
[2] = biological target: T1, GFP-tagged Plasmepsin V (PmV-GFP), P. …
[3] = biological target: T1, GFP-tagged Plasmepsin V (PmV-GFP), P. …; assay: 3 uM HRPII-PExEl substrate; remark: listed apart in the source
[4] = biological target: T1, GFP-tagged Plasmepsin V (PmV-GFP), P. …; remark: listed apart in the source
[5] = biological target: T1, GFP-tagged Plasmepsin V (PmV-GFP), P. …; assay: 3 uM HRPII-PExEl substrate; remark: listed apart in the source

T1 sequence (Q8I6Z5 whole entry): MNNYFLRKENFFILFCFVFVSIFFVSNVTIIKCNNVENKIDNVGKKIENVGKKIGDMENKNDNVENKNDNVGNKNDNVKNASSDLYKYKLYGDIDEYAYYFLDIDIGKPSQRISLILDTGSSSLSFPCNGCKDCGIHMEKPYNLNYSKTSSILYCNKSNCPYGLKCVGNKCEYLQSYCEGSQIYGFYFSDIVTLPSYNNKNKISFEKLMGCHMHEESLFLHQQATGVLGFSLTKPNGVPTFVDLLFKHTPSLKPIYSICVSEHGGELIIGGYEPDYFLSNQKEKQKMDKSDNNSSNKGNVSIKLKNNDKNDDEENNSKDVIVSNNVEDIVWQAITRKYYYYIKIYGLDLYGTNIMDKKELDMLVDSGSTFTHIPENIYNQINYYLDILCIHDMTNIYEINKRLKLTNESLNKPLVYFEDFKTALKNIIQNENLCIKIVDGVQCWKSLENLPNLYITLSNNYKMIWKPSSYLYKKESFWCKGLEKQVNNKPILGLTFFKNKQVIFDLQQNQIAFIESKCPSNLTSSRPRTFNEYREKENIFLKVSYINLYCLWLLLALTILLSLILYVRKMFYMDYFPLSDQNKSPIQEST

B1: Compound 1 (LG20), RL[L~A]EA (peptide)
peptide: RLLAEA
modifications: also: hydroxyethylamino (HEA) isostere in place of peptide bond Leu3-Ala4
[1]
  IC50: 0.37 nM

B2: Compound 36, a biotinylated version of Compound 1 (peptide)
peptide: {Biotin-GABA-GABA}-RLLAEA
modifications: also: hydroxyethylamino (HEA) isostere in place of peptide bond Leu3-Ala4
[2]
  Ki: 22.5 nM
[3]
  IC50: 41.9 nM

B3: Compound 37a (octanoyl group at the N-terminus of Compound 7a) (peptide)
peptide: Octanoyl-RLLYEA
modifications: also: hydroxyethylamino (HEA) isostere in place of peptide bond Leu3-Tyr4, carbinol S
[2]
  Ki: 0.01 nM

B4: Compound 7a (peptide)
chain: RLLYEA
modifications: not fully specified; also: HEA isostere replaces the Leu3-Tyr4 peptide bond
[4]
  Ki: 0.74 nM
[5]
  IC50: 1.38 nM
